From PMC12886386

Molecular target: His10-pA-Tn5 (His10-tagged protein A-Tn5 transposase fusion) (not stated | Escherichia coli)
Assay: SEC; HiLoad 16/600 Superdex 200 pg after Ni-NTA; buffer C: 50 mM Tris-HCl pH 7.5, 800 mM NaCl, 0.2 mM EDTA, 2 mM DTT, 10% (v/v) glycerol; fractions checked by SDS-PAGE and 260 nm/280 nm ratio

“His10-pA-Tn5 (His10-tagged protein A-Tn5 transposase fusion) (enzyme)” gave a stoichiometry N of 2.
